Data: PMC11659421, “Structural insights into the enzymatic breakdown of azomycin-derived antibiotics by 2-nitroimdazole hydrolase (NnhA)” (Communications Biology, 2024)
Changes are numbered by the printed parent chain. Names may count otherwise.

Experiments:
O=[N+]([O-])c1ncc[nH]1 = assay: nitrite release, Griess reaction, Michaelis-Menten plot; type: biochemical, Mycobacterium sp. JS330; details: 25-400 µM 2NI, 25 °C, no metal or cofactor
Text: nitrite release, Griess reaction, Michaelis-Menten plot on NnhA

[1] = target: the molecule itself; assay: SEC; Superdex 200 prep column during purification, 20 mM Tris pH 7.5, 50 mM NaCl; molecular weight estimate assumes a globular complex
[2] = target: the molecule itself; assay: crystal structure; crystals in space groups P1 (6 molecules in the asymmetric unit) and H32 (one protomer, hexamer by crystallographic symmetry); grown in polyacrylic acid 5100, MgCl2, HEPES pH 7.2, or PEG 3350 with sodium malonate pH 7.0; data at 100 K
[3] = 1.1 µM enzyme, soluble variant from directed evolution

NnhA (Mycobacterium sp. JS330)
Km (O=[N+]([O-])c1ncc[nH]1; 1.1 µM enzyme): 93.1 ± 14.1 µM
kcat (O=[N+]([O-])c1ncc[nH]1; 1.1 µM enzyme): 0.0212 ± 0.00267 s⁻¹
kcat/Km (O=[N+]([O-])c1ncc[nH]1; 1.1 µM enzyme): 200 M⁻¹ s⁻¹

NnhA (Mycobacterium sp. JS330; C352A/G14D/K73R/T2I)
Km (O=[N+]([O-])c1ncc[nH]1; 3.3 µM enzyme): 24.5 ± 3.3 µM
kcat (O=[N+]([O-])c1ncc[nH]1; 3.3 µM enzyme): 0.0122 ± 0.000333 s⁻¹
kcat/Km (O=[N+]([O-])c1ncc[nH]1; 3.3 µM enzyme): 500 M⁻¹ s⁻¹

NnhA (Mycobacterium sp. JS330; G14D/K73R/T2I)
Km (O=[N+]([O-])c1ncc[nH]1; [3]): 109.8 ± 7.6 µM
kcat (O=[N+]([O-])c1ncc[nH]1; [3]): 0.3 ± 0.007 s⁻¹
kcat/Km (O=[N+]([O-])c1ncc[nH]1; [3]): 2730 M⁻¹ s⁻¹

B1: soluble NnhA (2-nitroimidazole nitrohydrolase A, T2I-G14D-K73R variant) (enzyme)
chain: MITVDKRPSSRGYDDWRLSDIPQYKDGISTYEFVRATHEADYRTHQAEPVAGRTFGFNGIGRLTEVALHMPTRYTLHDQSSQYKESPSFFQGLMGVPDRGPVDLAAFQRETEELATAFENNGIKVHWVDYPEEPANPYGPLMGHVFLSWGSIWRGGSVISRFGFLPGMVGVSEYLAKWAWNTLNIPPLVAITEGAMEPGACNMIADEVLVTCLSASYDQRGTDQLVAAISKTSGTEEFHNLQLRPAVEGFFNKATGACAHPDININAIDVGKLVVSPAALDWDARTWLYDNNFELIEADPDEQREFLAPCNVLLLEPGKVIAHADCHKTNQKIRDAGVEVIEVTGTEIRKACGGIKCRVMQINREPGPTLADVRNRVWR
notes: 2-nitroimidazole nitrohydrolase A (NnhA) of Mycobacterium sp; JS330, UniProt F4ZCI3.1; electron density from R11 to R379 at the C-terminus; Variant found by four rounds of directed evolution (error-prone PCR); also called NnhA-T2I-G14D-K73R; soluble T2I, G14D, K73R NnhA mutant; source: no nickel column; not shown: His6, N-terminal, kept
stoichiometry N [1]: ~4
stoichiometry N [2]: 6

B2: NnhA-T2I-G14D-K73R-C357A (enzyme)
chain: B1 chain with C357A
notes: 2-nitroimidazole nitrohydrolase A (NnhA) of Mycobacterium sp; JS330, UniProt F4ZCI3.1; also called NnhA C357A; source: no nickel column
stoichiometry N [2]: 6
